In patent EP1803810A1:

What was measured:
[1] = molecular target: human integrin αvβ3 (human) (UniProt P06756); assay: flow cytometry on HMVEC-d; competitor mAb LM609
[2] = molecular target: human integrin α5β1 (human) (UniProt P08648); assay: flow cytometry on HMVEC-d; competitor mAb SAM-1
[3] = molecular target: human integrin αvβ5 (human) (UniProt P06756); assay: flow cytometry on HMVEC-d; competitor mAb MAB 1961
[4] = molecular target: α6β1.α6β4 (human) (UniProt P23229); assay: flow cytometry on HMVEC-d; competitor α6 integrin mAb (GoH3 and/or 439-9B)
Chain of UniProt P23229 (P23229 24-1130): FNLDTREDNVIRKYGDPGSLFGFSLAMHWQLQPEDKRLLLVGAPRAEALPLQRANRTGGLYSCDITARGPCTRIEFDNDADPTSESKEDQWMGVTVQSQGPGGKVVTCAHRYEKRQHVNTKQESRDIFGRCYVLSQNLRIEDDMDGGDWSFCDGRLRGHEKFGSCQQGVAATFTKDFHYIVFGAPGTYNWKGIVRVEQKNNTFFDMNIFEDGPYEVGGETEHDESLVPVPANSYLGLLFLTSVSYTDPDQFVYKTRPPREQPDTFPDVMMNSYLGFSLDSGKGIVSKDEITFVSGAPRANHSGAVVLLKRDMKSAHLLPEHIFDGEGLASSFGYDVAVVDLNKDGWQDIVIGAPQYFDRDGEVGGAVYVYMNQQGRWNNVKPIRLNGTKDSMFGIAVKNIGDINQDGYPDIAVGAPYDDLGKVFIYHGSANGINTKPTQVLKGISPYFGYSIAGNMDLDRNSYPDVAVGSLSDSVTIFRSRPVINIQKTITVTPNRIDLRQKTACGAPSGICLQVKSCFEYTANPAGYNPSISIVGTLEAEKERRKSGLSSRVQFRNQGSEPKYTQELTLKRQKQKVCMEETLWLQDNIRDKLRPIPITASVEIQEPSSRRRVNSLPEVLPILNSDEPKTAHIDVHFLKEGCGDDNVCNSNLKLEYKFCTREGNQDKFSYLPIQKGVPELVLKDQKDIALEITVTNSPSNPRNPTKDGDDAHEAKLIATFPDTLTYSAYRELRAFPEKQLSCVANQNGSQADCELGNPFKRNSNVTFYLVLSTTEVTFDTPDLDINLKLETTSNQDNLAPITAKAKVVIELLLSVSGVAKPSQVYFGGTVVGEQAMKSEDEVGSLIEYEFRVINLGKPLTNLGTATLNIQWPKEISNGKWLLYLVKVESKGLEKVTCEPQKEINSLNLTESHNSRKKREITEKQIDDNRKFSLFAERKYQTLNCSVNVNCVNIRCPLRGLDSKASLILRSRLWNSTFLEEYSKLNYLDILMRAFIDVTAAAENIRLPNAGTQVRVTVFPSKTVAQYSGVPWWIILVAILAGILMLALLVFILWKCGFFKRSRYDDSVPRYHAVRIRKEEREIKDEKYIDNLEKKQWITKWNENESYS

[5] = molecular target: human integrin α2β1 (human) (UniProt P17301); assay: flow cytometry on HMVEC-d; competitor mAb BHA2.1
Chain of UniProt P17301 (P17301 30-1181, chain 1 of 2): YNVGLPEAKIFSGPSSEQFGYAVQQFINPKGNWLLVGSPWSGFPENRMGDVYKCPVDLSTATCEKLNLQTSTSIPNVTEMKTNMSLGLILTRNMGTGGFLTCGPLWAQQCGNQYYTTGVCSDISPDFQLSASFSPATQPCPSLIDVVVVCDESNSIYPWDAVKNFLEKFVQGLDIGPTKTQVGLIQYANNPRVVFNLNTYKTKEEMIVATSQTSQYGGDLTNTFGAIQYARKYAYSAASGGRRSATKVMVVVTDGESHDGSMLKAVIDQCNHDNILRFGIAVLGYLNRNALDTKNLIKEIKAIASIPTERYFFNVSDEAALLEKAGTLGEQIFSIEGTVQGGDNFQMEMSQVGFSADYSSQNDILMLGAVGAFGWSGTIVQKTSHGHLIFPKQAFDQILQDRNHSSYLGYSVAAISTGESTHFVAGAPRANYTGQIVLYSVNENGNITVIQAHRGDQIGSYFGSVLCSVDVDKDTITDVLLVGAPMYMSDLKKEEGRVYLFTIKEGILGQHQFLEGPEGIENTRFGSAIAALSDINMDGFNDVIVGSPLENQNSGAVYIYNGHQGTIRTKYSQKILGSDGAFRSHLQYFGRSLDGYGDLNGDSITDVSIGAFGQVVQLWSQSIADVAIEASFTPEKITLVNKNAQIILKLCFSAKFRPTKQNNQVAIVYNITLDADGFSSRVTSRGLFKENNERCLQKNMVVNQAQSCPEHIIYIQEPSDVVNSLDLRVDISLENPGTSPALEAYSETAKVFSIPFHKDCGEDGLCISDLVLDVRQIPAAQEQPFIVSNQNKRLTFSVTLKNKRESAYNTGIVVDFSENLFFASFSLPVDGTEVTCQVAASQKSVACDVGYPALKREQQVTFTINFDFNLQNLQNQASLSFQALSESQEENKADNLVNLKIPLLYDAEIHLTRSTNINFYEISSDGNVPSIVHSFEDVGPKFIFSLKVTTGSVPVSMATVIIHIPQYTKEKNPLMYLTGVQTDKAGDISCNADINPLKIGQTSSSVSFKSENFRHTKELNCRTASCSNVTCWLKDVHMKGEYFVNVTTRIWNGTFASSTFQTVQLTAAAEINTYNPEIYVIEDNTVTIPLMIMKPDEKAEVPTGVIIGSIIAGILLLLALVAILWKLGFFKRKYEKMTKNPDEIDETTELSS
Chain of UniProt P17301 (P05556 21-798, chain 2 of 2, further chain): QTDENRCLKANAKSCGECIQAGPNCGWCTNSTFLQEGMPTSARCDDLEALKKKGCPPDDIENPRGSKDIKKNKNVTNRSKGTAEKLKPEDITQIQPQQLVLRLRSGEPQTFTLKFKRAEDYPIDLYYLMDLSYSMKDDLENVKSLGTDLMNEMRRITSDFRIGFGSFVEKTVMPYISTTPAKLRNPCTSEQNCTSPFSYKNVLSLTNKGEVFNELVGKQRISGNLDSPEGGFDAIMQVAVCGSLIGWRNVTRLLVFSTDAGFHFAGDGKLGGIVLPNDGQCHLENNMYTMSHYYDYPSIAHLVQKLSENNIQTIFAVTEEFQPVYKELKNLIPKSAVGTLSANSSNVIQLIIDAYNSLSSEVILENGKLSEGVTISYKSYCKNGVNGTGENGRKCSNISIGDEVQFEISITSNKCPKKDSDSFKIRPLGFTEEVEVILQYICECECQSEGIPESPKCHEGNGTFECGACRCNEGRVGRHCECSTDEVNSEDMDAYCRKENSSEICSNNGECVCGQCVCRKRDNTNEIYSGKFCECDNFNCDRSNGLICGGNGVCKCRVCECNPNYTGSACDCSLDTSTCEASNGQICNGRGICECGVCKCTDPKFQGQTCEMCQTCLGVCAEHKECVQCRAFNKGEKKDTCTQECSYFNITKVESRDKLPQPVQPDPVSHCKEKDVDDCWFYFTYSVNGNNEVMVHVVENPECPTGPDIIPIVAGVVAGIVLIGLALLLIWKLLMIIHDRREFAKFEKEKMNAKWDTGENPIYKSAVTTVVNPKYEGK

Chain of UniProt P08648 (P08648 42-1049, chain 1 of 2): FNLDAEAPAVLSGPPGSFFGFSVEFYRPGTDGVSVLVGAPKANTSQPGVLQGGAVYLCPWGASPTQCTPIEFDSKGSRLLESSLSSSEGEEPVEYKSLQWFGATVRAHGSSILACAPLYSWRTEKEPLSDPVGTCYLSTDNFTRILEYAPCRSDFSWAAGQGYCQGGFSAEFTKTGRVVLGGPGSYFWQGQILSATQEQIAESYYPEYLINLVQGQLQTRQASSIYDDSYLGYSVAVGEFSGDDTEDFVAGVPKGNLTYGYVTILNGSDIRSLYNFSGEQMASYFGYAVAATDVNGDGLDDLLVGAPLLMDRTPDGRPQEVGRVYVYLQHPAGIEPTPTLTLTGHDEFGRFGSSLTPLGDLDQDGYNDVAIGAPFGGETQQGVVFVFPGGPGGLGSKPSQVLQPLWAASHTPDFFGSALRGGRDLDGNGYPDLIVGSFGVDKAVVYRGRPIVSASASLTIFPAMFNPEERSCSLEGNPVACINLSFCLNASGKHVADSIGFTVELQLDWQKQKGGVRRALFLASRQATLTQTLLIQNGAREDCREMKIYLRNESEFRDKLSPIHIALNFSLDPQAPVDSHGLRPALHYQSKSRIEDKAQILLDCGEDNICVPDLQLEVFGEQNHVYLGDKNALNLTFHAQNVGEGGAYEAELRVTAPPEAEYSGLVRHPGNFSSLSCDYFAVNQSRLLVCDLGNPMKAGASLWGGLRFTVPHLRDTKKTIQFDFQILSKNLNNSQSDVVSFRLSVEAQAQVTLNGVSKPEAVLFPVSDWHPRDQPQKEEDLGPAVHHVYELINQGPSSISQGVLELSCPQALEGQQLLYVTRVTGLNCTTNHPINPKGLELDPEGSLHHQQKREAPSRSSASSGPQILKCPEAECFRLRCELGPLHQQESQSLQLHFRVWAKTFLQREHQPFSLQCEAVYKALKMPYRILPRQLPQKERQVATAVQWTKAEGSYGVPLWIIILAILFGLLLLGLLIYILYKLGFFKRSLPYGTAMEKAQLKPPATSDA
Chain of UniProt P08648 (P05556 21-798, chain 2 of 2, further chain): as the sequence (P05556 21-798, chain 2 of 2, further chain) above

ADAM-15dis-Fc (Fc fusion) was tested, and the percent inhibition of binding by integrin mAb [1] was 60%, the percent inhibition of binding by integrin mAb [2] was 30% and the percent inhibition of binding by integrin mAb [3] was 25%.

In the case of ADAM-20dis-Fc (Fc fusion), the percent inhibition of binding by integrin mAb [1] is reported as 58%.

Substance ADAM-21dis-Fc (Fc fusion) has a percent inhibition of binding by integrin mAb [2] of 54%.

ADAM-22dis-Fc (Fc fusion) was tested, and the percent inhibition of binding by integrin mAb [1] was 42%, the percent inhibition of binding by integrin mAb [2] was 36% and the percent inhibition of binding by integrin mAb [4] was 32%.

ADAM-23dis-Fc (Fc fusion) gave a percent inhibition of binding by integrin mAb [2] of 49%, a percent inhibition of binding by integrin mAb [5] of 22% and a percent inhibition of binding by integrin mAb [4] of 31%.
